In series [1] the target is T1, Full-length human NT5E (recombinant, secreted) (human).
T1 chain: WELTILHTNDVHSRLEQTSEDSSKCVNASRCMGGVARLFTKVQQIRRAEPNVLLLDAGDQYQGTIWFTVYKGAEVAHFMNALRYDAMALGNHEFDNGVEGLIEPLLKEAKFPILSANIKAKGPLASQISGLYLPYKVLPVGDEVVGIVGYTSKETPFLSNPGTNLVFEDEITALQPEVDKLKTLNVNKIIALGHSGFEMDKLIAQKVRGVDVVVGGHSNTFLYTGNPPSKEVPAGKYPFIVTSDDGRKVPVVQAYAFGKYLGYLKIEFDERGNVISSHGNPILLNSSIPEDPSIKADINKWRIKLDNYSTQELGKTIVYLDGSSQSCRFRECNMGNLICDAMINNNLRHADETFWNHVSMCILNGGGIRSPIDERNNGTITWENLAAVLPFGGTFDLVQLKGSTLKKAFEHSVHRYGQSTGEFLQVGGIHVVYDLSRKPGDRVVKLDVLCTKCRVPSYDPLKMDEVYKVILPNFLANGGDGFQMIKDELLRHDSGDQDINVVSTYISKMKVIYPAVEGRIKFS
Description: cell-based or functional assay.

The target of series [2] is hNT5EDF (substrate binding knock-out variant of human NT5E) (human). The experiment in a line: cell-based or functional assay.
Series [3] addresses T2, hNT5EFF (F417A/F500A mutant of hNT5E) (human, UniProt P21589 27-549).
T2 sequence (looked up): T1 chain with A350T, T353M, F391A, F474A
The experiment in a line: cell-based or functional assay.

For series [4], the target named is T1, Full-length human NT5E (recombinant, …). The experiment in a line: SPR, NT5E on NTA chip via His-tag, no ATP. (In SPR one partner is held on a chip, and binding of the other changes the refractive index at the surface.)
For series [5] the target is unchanged. The experiment in a line: SPR, NT5E on NTA chip via His-tag, 1 mM ATP.
For series [6] the target is unchanged. The experiment in a line: protein ELISA, immobilised biotinylated NT5E, 1 mM ATP. (An ELISA detects its analyte on a solid surface through an enzyme-linked reagent.)
Series [7] has as its target T3, Full-length murine NT5E (recombinant, secreted) (murine).
T3 chain: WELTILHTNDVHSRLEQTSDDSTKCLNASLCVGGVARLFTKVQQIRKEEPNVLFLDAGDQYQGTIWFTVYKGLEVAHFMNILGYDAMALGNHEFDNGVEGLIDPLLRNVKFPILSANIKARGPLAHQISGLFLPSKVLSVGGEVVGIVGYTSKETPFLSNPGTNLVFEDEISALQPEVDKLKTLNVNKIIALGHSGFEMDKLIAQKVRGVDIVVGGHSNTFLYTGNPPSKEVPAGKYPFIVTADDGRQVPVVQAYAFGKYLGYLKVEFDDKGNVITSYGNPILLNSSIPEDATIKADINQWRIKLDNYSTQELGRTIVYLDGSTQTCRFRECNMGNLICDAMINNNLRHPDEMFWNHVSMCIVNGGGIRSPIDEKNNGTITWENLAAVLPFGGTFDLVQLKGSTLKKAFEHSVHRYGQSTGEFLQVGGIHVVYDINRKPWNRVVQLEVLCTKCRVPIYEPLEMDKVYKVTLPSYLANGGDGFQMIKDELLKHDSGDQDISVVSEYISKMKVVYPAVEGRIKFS
The experiment in a line: SPR, NT5E on NTA chip via His-tag, 1 mM ATP; SPR, Fab, 1 mM ATP.

The target of series [8] is T3, Full-length murine NT5E (recombinant, …). Description: protein ELISA, immobilised biotinylated NT5E, 1 mM ATP; protein ELISA, Fab, 1 mM ATP (EC50ATP).
Series [9] addresses T1, Full-length human NT5E (recombinant, …). The experiment in a line: SPR, no ATP.
Series [10] deals with T3, Full-length murine NT5E (recombinant, …). Description: SPR, no ATP.
For series [11], the target named is T1, Full-length human NT5E (recombinant, …). The experiment in a line: SPR, 1 mM ATP.
Series [12] deals with T3, Full-length murine NT5E (recombinant, …). Description: SPR, 1 mM ATP.
Series [13] shares this target. Description: SPR, no ATP; footnote *: data generated poor fits.
For series [14] the target is unchanged. Description: protein ELISA, immobilised biotinylated NT5E, 1 mM ATP.
In series [15] the target is T1, Full-length human NT5E (recombinant, …). The experiment in a line: protein ELISA, immobilised biotinylated NT5E, no ATP (apo).

This is an account of results in patent publication US20260022186A1 (UNIVERSITY OF CHICAGO, published 2026).

Positions count from the first letter of the chain named.

B1: 1789 Fab (Fab, V domains shown)
VH: EVQLVESGGGLVQPGGSLRLSCAASGFNVSYSSIHWVRQAPGKGLEWVASISSSSGYTYYADSVKGRFTISADTSKNTAYLQMNSLRAEDTAVYYCARNYWGWYPFYYFAFDYWGQGTLVTV
VL: DIQMTQSPSSLSASVGDRVTITCRASQSVSSAVAWYQQKPGKAPKLLIYSASSLYSGVPSRFSGSRSGTDFTLTISSLQPEDFATYYCQQGWDYPITFGQGTKVEIKR
Consider B1, for which the “TM of NT5E by differential scanning fluorimetry with 1789 Fab, 1 mM ATP” value worked out at 66 ° C in [1], 46 ° C in [2] and 46 ° C in series [3]. The “TM of NT5E by differential scanning fluorimetry with 1789 Fab, No ATP” value in [1] amounted to 48 ° C; in series [2] it was 48 ° C; in series [3], 47 ° C. The figures for the dissociation constant (Kd) in series [4], in [5] and in series [7] were 760 nM, 42 nM and 160 nM, respectively. Also, the koff (as a rule, the first-order rate constant of dissociation) in series [4] is 0.044 s⁻¹; in series [5], 0.0073 s⁻¹; in series [7], 0.014 s⁻¹. Besides, the kon (as a rule, a measure of how fast the partners come together) in series [4] amounted to 57000 M⁻¹ s⁻¹; in series [5], 170000 M⁻¹ s⁻¹; in [7], 85000 M⁻¹ s⁻¹. For the same molecule, the EC50 (in general, the concentration at which the effect is half-maximal) in series [6] was determined as 37 nM; in series [8], 132 nM.

B2: 1789 AM39 Fab (Fab, V domains shown)
VH: B1 VH with S52R, S53G, S54A, S55G, G56S, Y57D, Y59R
VL: B1 VL
For the molecule B2, the Kd – broadly, a measure of binding affinity in units of concentration – in series [9] was 35 nM; in [11], 7.9 nM; in [12] it was 12 nM; in series [13], 99 nM. Moreover, the koff in [9] turned out to be 0.0099 s⁻¹; in series [10], 0.013 s⁻¹; in series [11], 0.0039 s⁻¹; in [12] it was 0.0035 s⁻¹. The kon in series [9] was found to be 280000 M⁻¹ s⁻¹; in series [10], 140000 M⁻¹ s⁻¹; in series [11], 490000 M⁻¹ s⁻¹; in series [12], 290000 M⁻¹ s⁻¹.

B3: 1789 AM42 Fab (Fab, V domains shown)
VH: B1 VH with S50K, S52R, S53G, S54G, S55H, G56Q, Y57D, Y59H
VL: B1 VL
Consider B3, for which the Kd in [9] worked out at 38 nM; in [10], 63 nM; in series [11], 11 nM; in series [12], 12 nM. Further, the koff in series [9] was 0.0067 s⁻¹; in [10], 0.012 s⁻¹; in [11] it was 0.0036 s⁻¹; in [12] it was 0.0029 s⁻¹. For the same molecule, the kon in [9] is 180000 M⁻¹ s⁻¹; in [10] it was 190000 M⁻¹ s⁻¹; in [11] it was 320000 M⁻¹ s⁻¹; in series [12], 250000 M⁻¹ s⁻¹.

B4: 1789 AM32 Fab (Fab, V domains shown)
VH: B1 VH with S50R, S52R, S53G, S54N, S55E, Y57D
VL: B1 VL
notes: also called Fab32
In the case of B4, the Kd is 86 nM in series [9], 150 nM in series [10], 15 nM in series [11] and 15 nM in series [12]. Also, the koff was found to be 0.0091 s⁻¹ in [9], 0.011 s⁻¹ in series [10], 0.0042 s⁻¹ in series [11] and 0.0028 s⁻¹ in series [12]. In addition, the kon in series [9] stood at 110000 M⁻¹ s⁻¹; in series [10] it was 78000 M⁻¹ s⁻¹; in series [11] it was 270000 M⁻¹ s⁻¹; in series [12], 190000 M⁻¹ s⁻¹.

B5: 1789 IgG (antibody, V domains shown)
VH: EVQLVESGGGLVQPGGSLRLSCAASGFNVSYSSIHWVRQAPGKGLEWVASISSSSGYTYYADSVKGRFTISADTSKNTAYLQMNSLRAEDTAVYYCARNYWGWYPFYYFAFDYWGQGTLVTVSS
VL: B1 VL
Consider B5, for which the concentration giving a half-maximal response (EC50) is 0.86 nM in series [6], 1.14 nM in series [14] and 2.14 nM in series [15].
